According to article PMC8643683, “Loss of full-length hnRNP R isoform impairs DNA damage response in motoneurons by inhibiting Yb1 recruitment to chromatin” (Nucleic Acids Research, 2021):

Target: T1, Y-box binding protein 1 (Yb1), endogenous mouse (mouse (endogenous in primary mouse …, UniProt P62960 1-322))
T1 construct: also called Msy1; source: endogenous, primary mouse motoneuron lysate; endogenous, NSC-34 lysate
Assay: co-IP; Yb1 (sc-101198) or γ-H2AX (clone JBW301) immunoprecipitated on protein A or G Dynabeads from whole lysates of NSC-34 cells, 0 Gy or 9 Gy; IP lysis buffer (50 mM Tris-HCl pH 7.4, 140 mM NaCl, 1% Triton X-100) with 1 U Benzonase, overnight at 4°C; western blot
Conditions: partners not purified

T1 sequence (P62960 whole entry): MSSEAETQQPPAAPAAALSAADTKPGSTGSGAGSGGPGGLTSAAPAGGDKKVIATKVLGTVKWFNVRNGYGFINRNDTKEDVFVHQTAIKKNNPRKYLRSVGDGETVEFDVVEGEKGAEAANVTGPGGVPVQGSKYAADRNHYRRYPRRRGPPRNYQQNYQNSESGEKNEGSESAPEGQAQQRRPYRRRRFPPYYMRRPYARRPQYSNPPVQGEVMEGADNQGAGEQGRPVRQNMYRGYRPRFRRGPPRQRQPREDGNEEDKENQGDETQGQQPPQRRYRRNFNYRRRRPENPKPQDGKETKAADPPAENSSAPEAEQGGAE

B1: hnRNP R-FL (full-length hnRNP R isoform), endogenous (natural protein, mouse (endogenous in NSC-34), UniProt Q8VHM5 1-632, looked up)
chain: MANQVNGNAVQLKEEEEPMDTSSVTHTEHYKTLIEAGLPQKVAERLDEIFQTGLVAYVDLDERAIDALREFNEEGALSVLQQFKESDLSHVQNKSAFLCGVMKTYRQREKQGSKVQESTKGPDEAKIKALLERTGYTLDVTTGQRKYGGPPPDSVYSGVQPGIGTEVFVGKIPRDLYEDELVPLFEKAGPIWDLRLMMDPLSGQNRGYAFITFCGKEAAQEAVKLCDSYEIRPGKHLGVCISVANNRLFVGSIPKNKTKENILEEFSKVTEGLVDVILYHQPDDKKKNRGFCFLEYEDHKSAAQARRRLMSGKVKVWGNVVTVEWADPVEEPDPEVMAKVKVLFVRNLATTVTEEILEKSFSEFGKLERVKKLKDYAFVHFEDRGAAVKAMDEMNGKEIEGEEIEIVLAKPPDKKRKERQAARQASRSTAYEDYYYHPPPRMPPPMRGRGRGGRGGYGYPPDYYGYEDYYDDYYGYDYHDYRGGYEDPYYGYDDGYAVRGRGGGRGGRGAPPPPRGRGAPPPRGRAGYSQRGAPLGPPRGSRGGRGGPAQQQRGRGSRGARGNRGGNVGGKRKADGYNQPDSKRRQTNNQQNWGSQPIAQQPLQQGGDYSGNYGYNNDNQEFYQDTYGQQWK
notes: hnRNP R, mouse, full-length 632-amino acid protein encoded by transcript variant 1, translated from the AUG in exon 2; source: endogenous, NSC-34 lysate
fold preference of co-precipitation with Yb1 over hnRNP R-ΔN: 1.7 fold
